The source of these data is patent publication US20050037404A1.

This test deals with all of the coactivators tested. Kind of test: cell-based or functional assay.

B1: VP16 transactivation domain linked to the ligand binding domain of SXR (VP-L-SXR), P06492 413-490; O75469 107-434 (protein)
chain: APPTDVSLGDELHLDGEDVAMAHADALDDFDLDMLGDGDSPGPGFTPHDSAPYGALDMADFEFEQMFTDALGIDEYGGMKKEMIMSDEAVEERRALIKRKKSERTGTQPLGVQGLTEEQRMMIRELMDAQMKTFDTTFSHFKNFRLPGVLSSGCELPESLQAPSREEAAKWSQVRKDLCSLKVSLQLRGEDGSVWNYKPPADSGGKEIFSLLPHMADMSTYMFKGIISFAKVISYFRDLPIEDQISLLKGAAFELCQLRFNTVFNAETGTWECGRLSYCLEDTAGGFQQLLLEPMLKFHYMLKKLQLHEEEYVLMQAISLFSPDRPGVLQHRVVDQLQEQFAITLKSYIECNRPQPAHRFLFLKIMAMLTELRSINAQHTQRLLRIQDIHPFATPLMQELFGITGS
B1 returned a Gal4 reporter activity in mammalian two-hybrid assay, 10 µM docetaxel against 10 µM paclitaxel (% less than with paclitaxel) of 25 to 40.
